The record followed here is the supplement of paper PMC12042874.

± gives the uncertainty stated by the source.

The nature of the data set: amyloid nucleation score (Sup35N fusion, yeast selection) (log enrichment); library NNK3; higher = more nucleation; inactive = no reads after selection. The procedure, abridged: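 Plasmid inserts were Illumina-sequenced at input and output from psi-negative yeast expressing Sup35N fused to peptides of 20 random codons. The yeast were induced with 100 μM copper sulfate for 24 hours and grown 7 days at 30°C on medium lacking adenine and uracil, and sequences with under 100 input reads were excluded. Nucleation score is the DiMSum log enrichment of output over input reads, centred on the mode score of non-aggregating sequences.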
For LGVRNDPQQSLPVQFGFELE, the amyloid nucleation score turned out to be 0.041 ± 1.2.
With VWFINFVCLFKGSLLCISES, the amyloid nucleation score entry was “inactive”.
Next, KQVNWS: “inactive”.
Next, GYRRKNRHSWTDPGITALNK: “inactive”; VSYWNEHHSEIVPLGCF: “inactive”; FSLFS: “inactive”.
Next, ASHHVDSTYDTYYWQHKAKK: “inactive”; QGNCVNRIC: “inactive”; WRSMAFPVVK: 0.988 ± 0.13.
MLPVIHIGVVSPRTFEQSSC: the amyloid nucleation score result is “inactive”.
Next, STFSYSPVACWCFGGISQVG: -0.797 ± 2.5; KWTSCSYPH: “inactive”.
Next, FSLLCFRSWANPIVTMYKYY: “inactive”; HVDTSPSYIPPGIKLVRQRM: -0.528 ± 0.36; HNSRN: 0.186 ± 0.21.
Next, NLRSS: “inactive”; FNWLGLGLMLGIDRDRCDNV: “inactive”.
Take YPMTQALVTSWVLHCTAMKM: the amyloid nucleation score result was “inactive”.
Next, LFMLGQLLTWDFHALSSGYV: 0.523 ± 0.19; TRNPDKLCANVLDNRH: “inactive”.
Next, SDRFYHCTFHAVTVRWKQRV: “inactive”; TENQS: “inactive”; SCSIIYRPPSIWRYSKRTSL: “inactive”.
Next, HYADSVESRSALLWLVSFLF: “inactive”; RNVIANEGLCQKR: “inactive”.
As for RPVTPC, the amyloid nucleation score result was “inactive”.
For VFAFTKMESRFLLGLRVDEY, the amyloid nucleation score stood at 0.729 ± 0.15.
Next, KVIRNTFIACCSV: 2.16 ± 0.07; ATTGR: “inactive”.
Next, NLFMMHV: “inactive”; VSWVYRSGRFYDGVGVGYRT: “inactive”.
Next, ASYLCVFCDRAFQCGPYRYI: 2.22 ± 0.092; LCVFL: 1.1 ± 0.15; KYINFSLNS: “inactive”.
The substance WNVWVLPIFIAFGLEPPRLE yielded an amyloid nucleation score of 2.62 ± 0.059.
Next, TALAEQ: -0.402 ± 1.3; PPVLVNGLTLKWEGVYSVNY: 0.802 ± 0.21.
Take RGFAVSF: the amyloid nucleation score is -0.678 ± 0.89.
Next, SFMACRLCGRAVDDIVEYTV: “inactive”; TNKRTYFWVF: 1.02 ± 0.097.
Next, NCIIR: “inactive”; FFVKYVLEKCAWKY: “inactive”.
The substance WGLRFFIWQPRDMFSACCTC returned an amyloid nucleation score of 1.6 ± 0.11.
Next, VTCWGWSFAGGRHCQVEAGV: -0.456 ± 0.96; FPVYQCWLSN: “inactive”; GCPIFAIFFDLTLCDNARYM: 2.47 ± 0.08.
Next, VVDLIRNCKDRTVDLLDGIA: “inactive”; SILGFT: “inactive”; LCVDVS: “inactive”.
On to RSPTNV, for which the amyloid nucleation score entry was “inactive”.
Next, HPSVVLHGEATCTASRVLQV: “inactive”; VYVSCRMWNFRKMMMPV: “inactive”; RNNCCAKVIYKWLSTFGQTD: “inactive”.
Next, TASVLNYFSGFWRGV: 1.04 ± 0.17; RLLPFIGIYNFSKKWLSKAL: -0.313 ± 0.75; NLFYNEEDVLIQFVYQRTIW: “inactive”.
Next, RSRDIGVFTGVQCLVRYRRY: “inactive”; MFVVYLGYRRAVIDNDALED: “inactive”; CFCLSRL: “inactive”.
On to CTQGMVYIS, for which the amyloid nucleation score entry is “inactive”.
Next, EGNYAYAVVSHAHFEV: “inactive”; LFRFS: “inactive”.
Turning to FSCDIAVILNLDLTMVDLLF, the amyloid nucleation score entry was “inactive”.
Next, STSFNIRIFMYKFAYF: 1.31 ± 0.095.
Next, WNLFDHRIGNKQRNGYDVYE: “inactive”.
Next, EPKLDNV: “inactive”.
For IKNMHRLDFR, the amyloid nucleation score was -0.501 ± 1.9.
Next, LLGCAYTGSTFHGNVGSFVL: “inactive”; TTFNRFVYPYGERYLG: “inactive”.
As to LKNFIKWRGILPFFGTDFWM, the amyloid nucleation score result is “inactive”.
Next, ECADLWARLYHFF: “inactive”; LVKIWDPSFNCFWMNGISNG: 1.01 ± 0.14; TVSKCSERRVCTPGDSCVAC: “inactive”.
Next, NYDFWVQTISECCELEFVM: “inactive”; ATSTTSLRVNLDHCAETFQN: 0.238 ± 0.44.
Next, YKYLLFAFLETLGQWYLYVE: “inactive”; VCAGNTDPWSQELIPYRKC: “inactive”.
Regarding AHVSLVSLRKRLPYFGFASV, the amyloid nucleation score entry is “inactive”.
On to NCNPFCIRLWFPNEYICW, for which the amyloid nucleation score entry is “inactive”.
As to DVEFGLSKLCYHRVCYVTEM, the amyloid nucleation score was -0.113 ± 0.66.
Next, VRLWFSGRTFSVKVVTHAPC: 1.41 ± 0.098.
Next, VTRMDGYVAFISNHSFKSVY: 1.36 ± 0.14; NRCKLNVAGHLCANRTRRFR: “inactive”; RPFLCYLTAPASMNNTLNQV: “inactive”.
On to GMQALIVFSSVVMRYAFVEG, for which the amyloid nucleation score was -1.18 ± 1.7.
Next, LCFRCASLTESIGL: “inactive”; VFKFVLLSLYMFQWGNAFPM: “inactive”.
Next, LAVYPTGTDRDFGF: “inactive”; KQLDDPRQICIFYPT: “inactive”; TSFFNNFSLLFVLVWNVLRG: “inactive”.
With TGDSLLLAHLLWSMDIVNMN, the amyloid nucleation score entry was “inactive”.
Next, LSASGYQSCSNVMMSTHVSN: “inactive”; VVLFYDSCSG: “inactive”.
Next, HCHDVGVLLIKFCNNLWCSH: 1.99 ± 0.1; SWTFQHIWVRHSRSPCKAGR: “inactive”.
Next, YAVLNELVTRSCLYAVSFTI: “inactive”; FRLMVGCCYGGPGREVWAGG: “inactive”.
PVTFSCYNTLACIKLYYGNV gave an amyloid nucleation score of 2.56 ± 0.066.
Consider WSLPSRLIRDVGSSWIYFCL, for which the amyloid nucleation score entry was “inactive”.
Next, NWMDDWSYVVVSF: -1.13 ± 2.5.
Next, SIDDGLSYLMGKVKIHKSGK: “inactive”; QMRCLY: “inactive”.
As to SELQYISLIYCDNRVCLHAL, the amyloid nucleation score entry is “inactive”.
Next, HITCVMSIKTRGLRMTERGS: 1.51 ± 0.096.
Next, MIRSVLLIQFNALEHSVRCR: “inactive”; LTYAALYLNGKMNVENARVV: “inactive”; AMSTDLLSVACL: “inactive”.
Next, YLGESWTVPALYVRSDMMFV: “inactive”.
As to FVTAKQCVVCRQ, the amyloid nucleation score result was “inactive”.
Next, IIYILPLCPRV: “inactive”; TKLMGLSVLLIEVIVGVSCW: “inactive”.
FFFLNSWVFYVLMNNDIVCA: the amyloid nucleation score result was “inactive”.
Next, AGNIACVLSLCTYNARYRTR: 3.19 ± 0.068; VWDRRK: “inactive”; VQRSYWICQLPAGVSWSGI: “inactive”.
Next, NWAGLHIVKYRLPPHTHLWH: “inactive”; NYGTLMYTVL: “inactive”.
Next, YNLSNTVLAISVGERNT: “inactive”.
In the case of TSTGYNPIYYIMMFN, the amyloid nucleation score was determined as 0.677 ± 0.32.
For the substance VNVRHTGSLTFFF, the amyloid nucleation score stood at 1.01 ± 0.12.
Next, LIGSGV: “inactive”; SMRSGVLGHIIQTM: “inactive”.
Next, FEIYECQLAC: “inactive”; VNMMRDVVIDKVLFLSSHVA: 1.48 ± 0.12.
On to CPCRHVFSRLSPF, for which the amyloid nucleation score entry is “inactive”.
With TDMHGFNNIS, the amyloid nucleation score result was “inactive”.
Regarding FASYYHTVDRADFDDLDPAN, the amyloid nucleation score result is “inactive”.
For LKLWYPLSFIDVRAPRA, the amyloid nucleation score entry is “inactive”.
Next, GHMTVSTWWNIVYMAKGYRV: -0.425 ± 0.8; TPSRREMDVCVFFSPFAMHM: 0.896 ± 0.095; VATHTSASHLRS: “inactive”.
Next, DMVLSEPFFFGLCFLDFWIF: “inactive”.
Next, FSFITL: “inactive”.
TETSWDGVVLSLISCRFQSY had an amyloid nucleation score of 3.02 ± 0.079.
